The data set concerns the molecule itself. The experiment in a line: SEC; SE-HPLC on Superdex 200 10/300 GL, 0.1 M Na2CO3 pH 10.3, 0.4 ml/min, detection at 280 nm; purified rCU after xanthine affinity chromatography and Source 15Q fractions.

Where “and” joins values, the source holds several entries; their conditions need not be identical. Equal entries are not always repeated.

B1: recombinant canine uricase (enzyme, UniProt Q5FZI9 1-304, looked up)
chain: MAHYHNDYKKNDEVEFVRTGYGKDMVKVLHIQRDGKYHSIKEVATSVQLTLSSKKDYVYGDNSDIIPTDTIKNTVHVLAKFKGIKSIETFAMNICEHFLSSFNHVIRAQVYVEEVPWKRFEKNGVKHVHAFIHNPTGTHFCEVEQMRSGPPVIHSGIKDLKVLKTTQSGFEGFIKDQFTTLPEVKDRCFATKVYCKWRYHQGRDVDFEATWDTVRDIVLEKFAGPYDKGEYSPSVQKTLYDIQVHSLSRVPEMEDMEISLPNIHYFNIDMSKMGLINKEEVLLPLDNPYGRITGTAKRKLASKL
notes: Active form is a homo-tetramer; octamers and larger aggregates of the same chain were also seen and separated on Source 15Q; No tag is mentioned; Unmodified (not PEGylated) protein in the SE-HPLC analysis; also called rCU; wDU
Consider B1, for which the “stoichiometry N” value is 4 and 8.
